± gives the half width of the 95% confidence interval.
Experiments:
[1] = folding stability dG unfold from trypsin proteolysis; higher = more stable
Method in brief: (§1)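 Mini-proteins designed to be under 80 residues and free of cysteine were carried in a PA-tagged cDNA display construct and digested with trypsin and with chymotrypsin. Each protease was applied at 11 threefold-diluted concentrations, alongside a no-protease condition, before sequencing. K50 came from Bayesian fitting of the sequencing counts, and unfolding free energy was obtained by comparing it with a sequence-predicted unfolded-state K50 and a shared folded-state K50, for each protease separately or for both together. Designs were retained only if their AlphaFold2 dimer inter-PAE exceeded 15.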

[2] = folding stability dG unfold from chymotrypsin proteolysis; higher = more stable
Method in brief: as §1

[3] = folding stability dG unfold (combined trypsin and chymotrypsin); higher = more stable
Method in brief: as §1

| Sequence | folding stability dG unfold [1] | folding stability dG unfold [2] | folding stability dG unfold [3] |
| --- | --- | --- | --- |
| SGMSMAKDAKPIYIEYRDPNGKSYRVTEVKVNEDGTLTITIEYPDSIKTYTLPPNANYPLSSSLILSTVESA [r9_993_JUSTAS] | 1.4 ± 0.076 kcal/mol | 1.43 ± 0.13 kcal/mol | 1.45 ± 0.14 kcal/mol |
| SAGGGLSPDTPVNYVVFVELPNGERRTFNVPGPAGRPEVAIAIAEKLREEGYEVKAIFPGEGVIVVGSAGGS [r8_497_TrMRF] | 2.88 ± 0.12 kcal/mol | 3.117 ± 0.0089 kcal/mol | 2.98 ± 0.08 kcal/mol |
| SMEPGERYRITATRKDGSRVEVEAIPGGVLRARVYLPNGELVGEAEFPVDRPVELLEALGLDELVSVEPESA [r9_1107_TrMRF] | 2.17 ± 0.051 kcal/mol | 2.42 ± 0.043 kcal/mol | 2.32 ± 0.086 kcal/mol |
| SAGGSAMLVIEIEVDGKKVTLVIEVPPEMTEEEIRELAEELAERLRALPGVKEVKVKIERVPPPPESAGGSA [r15_246_TrROS_Hall] | 4.06 ± 0.22 kcal/mol | 3.56 ± 0.18 kcal/mol | 3.85 ± 0.26 kcal/mol |
| SAGGLTWEEAREIAEEIANMEVPSPNGMPMKVKVDIEIDPPNGYFRVDVKVEMPGKPQKFPLEIPLKSAGGS [r16_812_TrROS] | 0.607 ± 0.16 kcal/mol | 0.536 ± 0.17 kcal/mol | 0.673 ± 0.25 kcal/mol |
| SGPALEILRAASEEEGVPVLAEVVPDADGNPVIPAVVWSPEDIEAGELPGEVKEAPITVDGKTYRVVLFASA [r9_489_TrMRF] | -0.224 ± 0.11 kcal/mol | -0.0942 ± 0.18 kcal/mol | -0.0573 ± 0.086 kcal/mol |
| SNPENIDKITFTFRWPDGNPMEIEIDPDGTVEYEYPNGWEIEITIDPDDGKLTIEMTFPNGRPQEQKIPISA [r9_99_TrROS] | 1.86 ± 0.12 kcal/mol | 2.85 ± 0.097 kcal/mol | 2.94 ± 0.38 kcal/mol |
| SAGGFEEKVKAGEEVVDVVAPITLPDGTEAVVTRVEPVDDGLLVTLRPPWTGEEVELPLPASEIPKLPSAGG [r13_340_JUSTAS] | 1.1 ± 0.057 kcal/mol | 1.21 ± 0.056 kcal/mol | 1.11 ± 0.077 kcal/mol |
| SAGSSVTAPFSLPSDLVVDSVTYDPDAKTVTVTVTDPRGGRKAVGTFPVWDPNGNPVLSTADSYTFDNPSAG [r5_434_TrMRF] | -0.417 ± 0.03 kcal/mol | -0.0129 ± 0.058 kcal/mol | -0.128 ± 0.053 kcal/mol |
| SAGGSAGGSAGGSIEINIMFELPNGLIFRISTTIEPNPDGNLKLDIDIEVIPIKPGQPISAGGSAGGSAGGS [r10_241_TrROS] | 3.11 ± 0.14 kcal/mol | 4.19 ± 0.13 kcal/mol | 3.96 ± 0.23 kcal/mol |
| SKTYLVKVTIEYGGKTIEIEVEVETLEEALAAVRAALPPEERAQLPPDAKVTVEVYELPEVDEETGELLESA [r9_111_TrROS_Hall] | 2.83 ± 0.07 kcal/mol | 4.2 ± 0.048 kcal/mol | 3.84 ± 0.059 kcal/mol |
| SAGGSAGGSAGGIKITPDIRELLRQQGKPFSEEEIQGIAKYIAKHFKEKGFEDVTIRIPWSAGGSAGGSAGG [r7_512_TrROS] | 0.471 ± 0.17 kcal/mol | 0.783 ± 0.2 kcal/mol | 0.774 ± 0.14 kcal/mol |
| SAGGSDVKTYTFVGIDPETGELVETTFRVTPLVPPVPVSVSVSLTLDVDPDGNLHLSLSVSVELGGSAGGSA [r2_326_TrMRF] | 3.21 ± 0.11 kcal/mol | 4.74 ± 0.081 kcal/mol | 4.37 ± 0.12 kcal/mol |
| SAGGRIKDIEPIPPNDPPGQKLTIKFPDGGPIEIPMEKEPDENGPYYYKFKLQVNNGEIEVMFRIPNSAGGS [r8_360_TrROS] | 3.73 ± 0.25 kcal/mol | 5.47 ± 0.16 kcal/mol | 5.18 ± 0.32 kcal/mol |
| SAGGSAGGKPTYYVAEVTYPGNLKATVVVEDKDNLTFVIPDTGEVWDLTDLDDIKITPVSADDPSAGGSAGG [r6_222_TrMRF] | 0.633 ± 0.033 kcal/mol | 0.95 ± 0.14 kcal/mol | 0.8 ± 0.073 kcal/mol |
| SAGGSAGGSADKIEIRVKLKIPNTDEILTFPIWVDPENPEEVAKAIAAWLEKNGYEIESFEGSAGGSAGGSA [r18_3_TrMRF] | 3.53 ± 0.23 kcal/mol | 4.14 ± 0.15 kcal/mol | 3.98 ± 0.16 kcal/mol |
| SAGGSAGGGMTLQITSIIEIKKPPDGPVVKFTVAGPGTTRTVTINLPENEIKPTTPIPLSRVLSSAGGSAGG [r6_585_JUSTAS] | 1.86 ± 0.13 kcal/mol | 0.968 ± 0.48 kcal/mol | 1.57 ± 0.31 kcal/mol |
| ETIYLSSSNPEEVIKALKEAASKGKTVVVEANPEFFKEFIAQGFKVEKILKIEPIPGGDGYRAEIKISPGGS [r1_173_TrMRF] | 1.64 ± 0.082 kcal/mol | 1.95 ± 0.063 kcal/mol | 1.97 ± 0.14 kcal/mol |
| SAGGSAGGSAGMEPEIYTITTTDSNGNTSSYTFTSTEEVNAFLNDPSFQSSAVSFTVSPTSAGGSAGGSAGG [r11_1047_JUSTAS] | 2.57 ± 0.053 kcal/mol | 2.88 ± 0.047 kcal/mol | 2.76 ± 0.076 kcal/mol |
| SAGGSAGGEYEISIPNYELTEEKFDPNPGLLTVTYKDPEGKLVTITYKVKPDSIEKVKTETFEPSAGGSAGG [r6_719_JUSTAS] | 0.569 ± 0.022 kcal/mol | 1.14 ± 0.049 kcal/mol | 0.963 ± 0.064 kcal/mol |
| SAGGSAGGSPPNKEVYIRIKIEYDGPNGQPIMEFWIPADEITPSFIEELMNRGGIKVDIELIPSAGGSAGGS [r12_398_TrROS] | 2.66 ± 0.085 kcal/mol | 2.99 ± 0.032 kcal/mol | 2.84 ± 0.1 kcal/mol |

— the supplement of paper PMC12764529
